According to the supplement of paper PMC10567573:

B1: ZER1 (parent)
chain: FDGPEAWGVCEPQREEVEERMWAA
B2: TBX5 (parent)
chain: FHEVGTEMIITKAGRRMFPSYKVK

Variants of: B1
Experiment: protein stability index of a GFP-peptide fusion (GPS, HEK-293T) (PSI 1-6); higher = more stable
Conditions: c terminus: a fixed tail appended
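Note: lentivirally expressed fusions sorted by FACS into six bins by GFP to DsRed ratio, PSI derived from sequencing read proportions per bin multiplied by bin number.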

First: FDGPEAWGVCEPQREEVEQRMWAA [E19Q]
Second: FDGPEAWGVCEPQREEVECRMWAA [E19C]
The protein stability index of the first is higher: 2.55 for the first, 2.05 for the second.

First: FDGPEAWGVCEPQREEVEERMWMA [A23M]
Second: FDGPEAWGVCEPQREEVEERMWKA [A23K]
The protein stability index of the first is higher: 3.08 for the first, 2.77 for the second.

First: FDGPEAWGVCEPQREEVEERMWQA [A23Q]
Second: FDGPEAWGVCEPQREEVEERMWVA [A23V]
The protein stability index of the first is higher: 2.61 for the first, 2.47 for the second.

First: FDGPEAWGVCEPQVEEVEERMWAA [R14V]
Second: FDGPEAWGVCEPQSEEVEERMWAA [R14S]
The protein stability index of the first is lower: 2.16 for the first, 2.56 for the second.

Going from FDGPEAWGVCIPQREEVEERMWAA [E11I] to FDGPEAWGVCDPQREEVEERMWAA [E11D], the protein stability index falls from 3.01 to 2.67.

First: FDGPEAWGVCVPQREEVEERMWAA [E11V]
Second: FDGPEAWGVCNPQREEVEERMWAA [E11N]
The protein stability index of the first is higher: 1.96 for the first, 1.83 for the second.

First: FDGPEAWGVCYPQREEVEERMWAA [E11Y]
Second: FDGPEAWGVLEPQREEVEERMWAA [C10L]
The protein stability index of the first is lower: 1.87 for the first, 3.15 for the second.

First: FDGPEARGVCEPQREEVEERMWAA [W7R]
Second: FDGPEASGVCEPQREEVEERMWAA [W7S]
The protein stability index of the first is lower: 3.97 for the first, 4.92 for the second.

First: FDGPEAEGVCEPQREEVEERMWAA [W7E]
Second: FDGPEAWGVCEPQRDEVEERMWAA [E15D]
The protein stability index of the first is higher: 4.54 for the first, 2.43 for the second.

Compared with FDGPEAWGVCEPQRREVEERMWAA [E15R], FDGPEAWGVCEPQRIEVEERMWAA [E15I] is lower in protein stability index: 2.79 for the first, 2.02 for the second.

Going from FDGPEAWGVCEPQREIVEERMWAA [E16I] to FDGPEAWGVCEPQREYVEERMWAA [E16Y], the protein stability index falls from 2.34 to 2.11.

Compared with FDGPEAWGVCEPQREKVEERMWAA [E16K], FDGPEAWGVCEPQREETEERMWAA [V17T] is higher in protein stability index: 1.98 for the first, 2.47 for the second.

Compared with FDGPEAWGVCEPQREEPEERMWAA [V17P], FDGPEAWGVCEPQREEHEERMWAA [V17H] is higher in protein stability index: 2.65 for the first, 2.77 for the second.

Compared with FDGPEAWGVCEPQREEFEERMWAA [V17F], FDGPEAWGVCEPQREEYEERMWAA [V17Y] is lower in protein stability index: 3.62 for the first, 2.75 for the second.

Compared with FDGPEAWGVCEPQREEWEERMWAA [V17W], FDGGEAWGVCEPQREEVEERMWAA [P4G] is higher in protein stability index: 2.44 for the first, 2.73 for the second.

Going from FDGPEAWGVCEPQREEVEERMWAQ [A24Q] to FDGPEAWGVCEPQREEVEERMWAL [A24L], the protein stability index rises from 2.86 to 2.98.

Compared with FDGPEAWGVCEPQREEVEERMWAC [A24C], FDGPEAWGVCEPQREEVEERMWAM [A24M] is lower in protein stability index: 3.55 for the first, 2.51 for the second.

First: FDGPEAWGVCEPQREEVEERMWAP [A24P]
Second: FDGPEAWGVCEPQREEVEEHMWAA [R20H]
The protein stability index of the first is higher: 3.05 for the first, 2.55 for the second.

Going from FDGPEAWGVCEPQREEVEEQMWAA [R20Q] to FDGPEAWGVCEPQREEVEEIMWAA [R20I], the protein stability index falls from 2.77 to 2.27.

First: FDGPEAWGVCEPQREEVEEDMWAA [R20D]
Second: FDGPEAWGVCEPQREEVEEMMWAA [R20M]
The protein stability index of the first is lower: 2.94 for the first, 3.09 for the second.

Going from FDGPEAWGVCEPQREEVEEKMWAA [R20K] to FDGPEKWGVCEPQREEVEERMWAA [A6K], the protein stability index rises from 2.34 to 3.02.

Going from FDGPEYWGVCEPQREEVEERMWAA [A6Y] to FDGPENWGVCEPQREEVEERMWAA [A6N], the protein stability index rises from 1.82 to 3.6.

Going from FDGPESWGVCEPQREEVEERMWAA [A6S] to FDSPEAWGVCEPQREEVEERMWAA [G3S], the protein stability index falls from 3.53 to 1.96.

First: FDIPEAWGVCEPQREEVEERMWAA [G3I]
Second: FDTPEAWGVCEPQREEVEERMWAA [G3T]
The protein stability index of the first is lower: 1.78 for the first, 1.98 for the second.

First: FDGPEAWGPCEPQREEVEERMWAA [V9P]
Second: FDGPEAWGHCEPQREEVEERMWAA [V9H]
The protein stability index of the first is lower: 3.08 for the first, 3.18 for the second.

Compared with FDGPEAWGFCEPQREEVEERMWAA [V9F], FDGPEAWGQCEPQREEVEERMWAA [V9Q] is higher in protein stability index: 2.94 for the first, 3.05 for the second.

Compared with FDGPEAWGVCEPQREEVCERMWAA [E18C], FDGPEAWGVCEPQREEVVERMWAA [E18V] is higher in protein stability index: 2 for the first, 2.12 for the second.

Compared with FDGPEAWGVCEPQREEVTERMWAA [E18T], FDGPEAWGVCEPQREEVQERMWAA [E18Q] is lower in protein stability index: 2.62 for the first, 1.95 for the second.

First: FDGPEAWGVCEPQREEVYERMWAA [E18Y]
Second: FDGPDAWGVCEPQREEVEERMWAA [E5D]
The protein stability index of the first is lower: 2.08 for the first, 2.99 for the second.

First: CDGPEAWGVCEPQREEVEERMWAA [F1C]
Second: MDGPEAWGVCEPQREEVEERMWAA [F1M]
The protein stability index of the first is higher: 4.17 for the first, 3.3 for the second.

First: RDGPEAWGVCEPQREEVEERMWAA [F1R]
Second: LDGPEAWGVCEPQREEVEERMWAA [F1L]
The protein stability index of the first is higher: 4.45 for the first, 3.93 for the second.

Going from FDGPEAWSVCEPQREEVEERMWAA [G8S] to FDGPEAWYVCEPQREEVEERMWAA [G8Y], the protein stability index rises from 1.95 to 3.39.

First: FDGPEAWMVCEPQREEVEERMWAA [G8M]
Second: FDGPEAWAVCEPQREEVEERMWAA [G8A]
The protein stability index of the first is lower: 1.79 for the first, 1.96 for the second.

Compared with FDGPEAWFVCEPQREEVEERMWAA [G8F], FDGPEAWGVCEKQREEVEERMWAA [P12K] is higher in protein stability index: 1.55 for the first, 2.9 for the second.

Compared with FDGPEAWGVCEFQREEVEERMWAA [P12F], FDGPEAWGVCEHQREEVEERMWAA [P12H] is higher in protein stability index: 2.93 for the first, 3.17 for the second.

Compared with FDGPEAWGVCERQREEVEERMWAA [P12R], FDGPEAWGVCEIQREEVEERMWAA [P12I] is lower in protein stability index: 3.53 for the first, 2.31 for the second.

First: FDGPEAWGVCEPQREEVEERYWAA [M21Y]
Second: FDGPEAWGVCEPQREEVEEREWAA [M21E]
The protein stability index of the first is lower: 2.39 for the first, 3.56 for the second.

First: FDGPEAWGVCEPQREEVEERPWAA [M21P]
Second: FDGPEAWGVCEPQREEVEERHWAA [M21H]
The protein stability index of the first is higher: 2.47 for the first, 2.21 for the second.

For FDGPEAWGVCEPQREEVEERCWAA [M21C], the protein stability index was 2.46.

Variants of: B2
Experiment: as above
Conditions: c terminus: a fixed tail appended

First: FHEVGTEMIITKAGRRMFPSYKGK [V23G]
Second: FHEVGTEMIITKAGRRMFPSYKKK [V23K]
The protein stability index of the first is higher: 2.9 for the first, 2.24 for the second.

Going from FHEVGTEMIITKAGRRMFPSYKPK [V23P] to FHEVGTEMIITKAGRRMFPSYKAK [V23A], the protein stability index falls from 2.8 to 2.35.

First: FHEVGTEMIITKAGRRMFPSYKWK [V23W]
Second: FHEVGTEMIITKAGRRMFPSYKSK [V23S]
The protein stability index of the first is lower: 2.2 for the first, 2.27 for the second.

First: FHEVGTEMIITKAGRRMFPSYKFK [V23F]
Second: FHEVGTEMIITKAGRRMFPSYKEK [V23E]
The protein stability index of the first is lower: 2.23 for the first, 2.5 for the second.

Going from FHEVGTEMIITKAGRRMFPSYKQK [V23Q] to FHEVGTEMIITKAGRRMFPSYKHK [V23H], the protein stability index rises from 2.09 to 2.17.

Going from FHEVGTEMIITKAGRRMFPSYKMK [V23M] to FHEVGTEMIITKAGRRMFPSYKTK [V23T], the protein stability index rises from 1.78 to 2.14.

Going from FHEVGTEMIITKAGRRMFPSYKNK [V23N] to FHEVGTEMIITKAGRRMFPSYKIK [V23I], the protein stability index falls from 2.26 to 1.97.

First: FHEVGTEMIITKAGRRMFPSYKLK [V23L]
Second: FHEVGTEMIITKAGRRMFPSYKDK [V23D]
The protein stability index of the first is lower: 1.41 for the first, 2.52 for the second.

FHEVGTEMIITKAGRRMFPSYKRK [V23R] gave a protein stability index of 2.71.
